Laboratory results reported in the Human Domainome abundance scans (Beltran et al. 2025).
± gives the uncertainty stated by the source.

B1: Serine/threonine-protein kinase LATS1, residues 98 to 141; numbered along this chain, O95835 (parent)
chain: TSEVNPQMLQDLQAAGFDEDMVIQALQKTNNRSIEAAIEFISKM

Variants of: B1
Assay: abundance fitness (aPCA) (normalised: wild type 0, dead -1); higher = more abundant; growth selection in yeast, the domain comes from the species named
Conditions: Homo sapiens

Point of comparison: TSEVNPQMLQDLQAARFDEDMVIQALQKTNNRSIEAAIEFISKM [G16R], abundance fitness -1.1 ± 0.072. Against it:
- TSEVNPQMLQDLQAAGFDEDMVIQALQKANNRSIEAAIEFISKM [T29A] — higher, -0.646 ± 0.047
- TSEVNPQMLQDLQAAGFDEDMVIQALQKSNNRSIEAAIEFISKM [T29S] — higher, -0.463 ± 0.04
- TSEVNPQMLQDLQAAGFDEDMVIQALQKTNNRSIEAAIEFISKA [M44A] — higher, -0.053 ± 0.034
- TSEVNPQMLQDLQAAGFDEAMVIQALQKTNNRSIEAAIEFISKM [D20A] — higher, -0.047 ± 0.044
- TSEVNPQMLQDLQAAGFDEQMVIQALQKTNNRSIEAAIEFISKM [D20Q] — higher, -0.07 ± 0.075
- TSEVNPQMLQDLQAAGFDEDMVIQALEKTNNRSIEAAIEFISKM [Q27E] — higher, -0.041 ± 0.042
- TSEVNPQMLQDLQAAGFDEDMVIQALAKTNNRSIEAAIEFISKM [Q27A] — higher, -0.125 ± 0.037
- TSEVNPQMLQDLQAAGFDEDMVIQALHKTNNRSIEAAIEFISKM [Q27H] — higher, -0.269 ± 0.092
- TSEVNPQMLQDLQAAGFDEDMVIQALTKTNNRSIEAAIEFISKM [Q27T] — higher, -0.007 ± 0.044
- TSEVNPQMLQDLQAAGFDEDMVVQALQKTNNRSIEAAIEFISKM [I23V] — higher, 0.039 ± 0.037
- TSEVNPQMLQDLQAAGFDEDMVSQALQKTNNRSIEAAIEFISKM [I23S] — higher, -0.183 ± 0.038
- TSEVNPQGLQDLQAAGFDEDMVIQALQKTNNRSIEAAIEFISKM [M8G] — higher, -0.583 ± 0.038
- TSEVNPQQLQDLQAAGFDEDMVIQALQKTNNRSIEAAIEFISKM [M8Q] — higher, -0.541 ± 0.066
- TSEVNPQTLQDLQAAGFDEDMVIQALQKTNNRSIEAAIEFISKM [M8T] — higher, -0.447 ± 0.067
- TSEVNPQMLQDLQAAGFDEDMVIQALQKTNNRWIEAAIEFISKM [S33W] — within error, -1.12 ± 0.11
- TSEVNPQMLQDLQAAGFDEDMVIQALQKTNNRHIEAAIEFISKM [S33H] — within error, -0.934 ± 0.11
- TSEVNPQMLQDLQAAGFDEDMVIQALQKTNNRKIEAAIEFISKM [S33K] — higher, -0.528 ± 0.097
- TSEVNPQMLQDLQAAGFDEDMVIQALQKTNNRMIEAAIEFISKM [S33M] — within error, -0.96 ± 0.083
- TSEVNPQMLQDLQAAGFDEDMVIQALQKTNNRSIEAAIECISKM [F40C] — higher, -0.016 ± 0.058
- TSEVNPQMLQDLQAKGFDEDMVIQALQKTNNRSIEAAIEFISKM [A15K] — higher, -0.046 ± 0.067
- TSEVNPQMLQDLQANGFDEDMVIQALQKTNNRSIEAAIEFISKM [A15N] — higher, -0.309 ± 0.073
- TSEVNPQMLQDLQAYGFDEDMVIQALQKTNNRSIEAAIEFISKM [A15Y] — higher, -0.181 ± 0.07
- TSEVNPQMLQDLQARGFDEDMVIQALQKTNNRSIEAAIEFISKM [A15R] — higher, 0.022 ± 0.04
- TSEVNPQMLQDLQAEGFDEDMVIQALQKTNNRSIEAAIEFISKM [A15E] — higher, -0.308 ± 0.073
- TSEVNPQMLQDLQAAGFDEDMVIQALQKTNNTSIEAAIEFISKM [R32T] — higher, -0.004 ± 0.042
- TSEVNPQMLQDLQAAGFDEDMVIQALQKTNNDSIEAAIEFISKM [R32D] — higher, -0.26 ± 0.042
- TSEVNPQMLQDLQAAGFDEDMVIQALQKTNNGSIEAAIEFISKM [R32G] — higher, -0.185 ± 0.032
- TSEVNPQMLQDLQAAGFDEDMVIQALQKTRNRSIEAAIEFISKM [N30R] — higher, -0.103 ± 0.033
- TSEVNPQMLQDLQAAGFDEDMVIQALQKTQNRSIEAAIEFISKM [N30Q] — higher, -0.055 ± 0.047
- TSEVNPQMLQDLQAAGFDEDMVIQALQKTENRSIEAAIEFISKM [N30E] — higher, 0.015 ± 0.04
- TSEVNPQMLQDLQAAGFDEDMVIQALQKTVNRSIEAAIEFISKM [N30V] — the same, -1.1 ± 0.069
- TSEVNPQMLQDLQAAGFDEDMVIQALQKTGNRSIEAAIEFISKM [N30G] — higher, 0.045 ± 0.032
- TSEVNPQMLKDLQAAGFDEDMVIQALQKTNNRSIEAAIEFISKM [Q10K] — higher, 0.013 ± 0.046
- TSEVNPQMLQDLQAAGFDEDMVIQALQKTNNRSIEAAIEFNSKM [I41N] — higher, -0.429 ± 0.23
- TSEVNPQMLQDLQAAGFDEDMVIQALQKTNNRSIEAAIEFFSKM [I41F] — higher, -0.525 ± 0.1
- TSEVNPQMLQDLQAAGFDEDMVIQALQKTNNRSIEAAIEFPSKM [I41P] — higher, -0.232 ± 0.06
- TSEVNPQMLQDSQAAGFDEDMVIQALQKTNNRSIEAAIEFISKM [L12S] — higher, -0.616 ± 0.06
- TSEVNPQMLQDQQAAGFDEDMVIQALQKTNNRSIEAAIEFISKM [L12Q] — higher, -0.594 ± 0.08
- TSEVNPQMLQDDQAAGFDEDMVIQALQKTNNRSIEAAIEFISKM [L12D] — higher, -0.469 ± 0.1
- TSEVNPQMLQDAQAAGFDEDMVIQALQKTNNRSIEAAIEFISKM [L12A] — higher, -0.607 ± 0.049
- TSEVNPQMLQDTQAAGFDEDMVIQALQKTNNRSIEAAIEFISKM [L12T] — higher, -0.636 ± 0.052
- TSEVNPQMLQDLQAAQFDEDMVIQALQKTNNRSIEAAIEFISKM [G16Q] — within error, -0.953 ± 0.13
- TSEVNPQMLQDLQAADFDEDMVIQALQKTNNRSIEAAIEFISKM [G16D] — higher, -0.5 ± 0.06
- TSEVNPQMLQDLQAAGFDEDMVIQALQKTNNRSAEAAIEFISKM [I34A] — higher, -0.043 ± 0.034
- TSEVNPQMLQDLQAAGFDEDMVIQALQKTNNRSTEAAIEFISKM [I34T] — higher, 0.046 ± 0.044
- TSEVNPQMLQDLQAAGFDEDMVIQALQKTNNRSNEAAIEFISKM [I34N] — higher, -0.123 ± 0.22
- TSEVNPQMLQDLQAAGFDEDMVIQALQKTNNRSEEAAIEFISKM [I34E] — higher, -0.068 ± 0.045
- TSEVNPQMTQDLQAAGFDEDMVIQALQKTNNRSIEAAIEFISKM [L9T] — higher, -0.166 ± 0.15
- TSEVNPQMSQDLQAAGFDEDMVIQALQKTNNRSIEAAIEFISKM [L9S] — higher, -0.125 ± 0.056
- YSEVNPQMLQDLQAAGFDEDMVIQALQKTNNRSIEAAIEFISKM [T1Y] — higher, -0.26 ± 0.11
- KSEVNPQMLQDLQAAGFDEDMVIQALQKTNNRSIEAAIEFISKM [T1K] — higher, -0.012 ± 0.047
- PSEVNPQMLQDLQAAGFDEDMVIQALQKTNNRSIEAAIEFISKM [T1P] — higher, -0.213 ± 0.074
- TSEVNPQMLQDLQAAGFDEDMVIQALQKTNNRSIEAAMEFISKM [I38M] — higher, -0.016 ± 0.045
- TSEVNPQMLQDLQAAGFDEDMVIQALQKTNNRSIEAAHEFISKM [I38H] — higher, -0.203 ± 0.076
- TSEVNPEMLQDLQAAGFDEDMVIQALQKTNNRSIEAAIEFISKM [Q7E] — higher, -0.036 ± 0.051
- TSEVNPYMLQDLQAAGFDEDMVIQALQKTNNRSIEAAIEFISKM [Q7Y] — higher, -0.345 ± 0.073
- TSEVNPSMLQDLQAAGFDEDMVIQALQKTNNRSIEAAIEFISKM [Q7S] — higher, -0.149 ± 0.042
